Where a chain is given by its changes, count along the chain named.
T1: human CD112R (N81D)
T1 chain: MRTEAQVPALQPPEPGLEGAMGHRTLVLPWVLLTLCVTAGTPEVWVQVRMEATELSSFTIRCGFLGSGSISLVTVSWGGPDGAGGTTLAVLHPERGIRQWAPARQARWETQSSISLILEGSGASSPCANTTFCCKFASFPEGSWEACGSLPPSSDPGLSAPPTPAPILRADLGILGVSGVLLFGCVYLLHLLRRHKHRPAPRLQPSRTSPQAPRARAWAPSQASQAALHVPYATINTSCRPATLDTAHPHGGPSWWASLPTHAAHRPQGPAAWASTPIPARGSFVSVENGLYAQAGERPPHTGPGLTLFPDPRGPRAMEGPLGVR

T2: human TIGIT (UniProt Q495A1 22-244)
T2 chain: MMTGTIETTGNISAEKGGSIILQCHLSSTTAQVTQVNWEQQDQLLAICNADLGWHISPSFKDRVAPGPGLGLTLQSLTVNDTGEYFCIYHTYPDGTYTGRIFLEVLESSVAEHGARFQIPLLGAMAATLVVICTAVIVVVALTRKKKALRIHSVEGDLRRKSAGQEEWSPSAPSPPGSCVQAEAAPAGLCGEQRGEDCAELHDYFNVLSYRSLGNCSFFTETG

B1: 29E10 (antibody, V domains shown)
VH: EVQLVESGGGLVQPGGSLRLSCAASGFTFRNYDMHWVRQVPGKGLEWVSDIGNSGETYYLGSVKGRFTISRENAKNSLYLQMNSLRAGDTAVYYCVREEFGYGMDVWGQGTTVTVSS
VL: DIQMTQSPSSLSASVGDRVTITCRASQGIRNDLGWYQQKPGKAPKRLIYAASSLQSGVPSRFSGSGSGTEFTLTISSLQPEDFATYYCLQHNSYPLTFGGGTKVEIKR
B2: 1E1.016 (antibody, V domains shown)
VH: QVQLVQSGAEVKKPGASVKVSCKASGYTFTDYYIYWVRQAPGQGLEWMGWINPNAGGTNYAQKFQGRVTMTRDTSISTAYIELSRLRSDDTAVYYCAREDNFNGMDVWGQGTTVTVSS
VL: B1 VL with H91L, S93A
B3: 24F1.001 (antibody, V domains shown)
VH: EVQLVESGGGLVQPGGSLRLSCAASGFTFSRDDMHWVRQATGKGLEWVAGIDNAGETYYPGSVKGRFTISRENAKNSLYLQMNSLRAGDTAIYYCAREGQWPYGMDVWGQGTTVTVSS
VL: B1 VL with A50S, P59S, H91S
B4: 24F1 (antibody, V domains shown)
VH: B3 VH with E56D
VL: B1 VL with A50S, P59S, H91S
B5: 58A7.003.008 (antibody, V domains shown)
VH: QVQLQESGPGLVKPSETLSLTCTVSGGSISSGGYYWNWIRQPPGKGLEWIGYIYYSGSTFYNPSLKSRVTISVDTSKNQFSLKLSSVTAADTAVYYCARAPRYNWNYGWFDPWGQGTLVTVSS
VL: EIVLTQSPGTLSLSPGERATLSCRASQQVSSTYLAWYQQKPGQAPRLLFYGASSRATGIPDRFSRSGSGTDFTLTISRLEPEDFAVYYCQQYDVSPWTFGQGTKVEIKR
B6: 66H9.009 (antibody, V domains shown)
VH: QVQLQESGPGLVKPSETLSLTCTVSGGSISSVYFYWNWIRQPPGKGLEWIGYIYYSGGTYYNPSLRSRVTISVDTSKNQFSLKLNSVTAADTAVYYCARGSIAAGGGYFYYNDMDVWGQGTTVTVSS
VL: EIVLTQSPDFQSVTPKEKVAITCRASQSIGSSLHWYQQKPDQSPKPLIKYVSQSFSGVPSRFSGSGSGTDFTLTINSLEAEDAATYYCHQSSSLPLTFGGGTKVEIKR
B7: 43B7.002.015 (antibody, V domains shown)
VH: QVQLQESGPGLVKPSETLSLTCTVSGGSISSGGYYWSWIRQHPGKGLEWIGYIYYRGGTYYNPSLRSRVTMSVDTSKNQFSLRLSSVTAADTAVYYCARTIFGVIILDNWGQGTPVTVSS
VL: DIQMTQSPSSLSASVGDRVTITCRSSQSISSYLNWYQQKPGRAPKLLIYAASSLQSGVPSRFSGSGSGTDFTLTISSLQPEDFASYYCQQSYTTPPTFGGGTKVEIKR
B8: 55G7.041 (antibody, V domains shown)
VH: EVQLVESGGGVVQPGGSLRLSCAASGFTFSSYGMHWVRQAPGKGLEWVALIWFDESNIYYADAVKGRFTISRDNAKNTLYLQMNSLRAEDTAVYFCARGYDLLTGYYNFDFWGQGTLVTVSS
VL: QAGLTQPPSVSKGLRQTATLTCTGNANNVGNRGAAWLQQHQGHPPKLLSYRNNNRPSGISERLSASRSGNTASLTITGLQPEDEADYYCSAWDSSLSAWVFGGGTKLTVLG
B9: human CD112R (receptor)
chain: TPEVWVQVRMEATELSSFTIRCGFLGSGSISLVTVSWGGPNGAGGTTLAVLHPERGIRQWAPARQARWETQSSISLILEGSGASSPCANTTFCCKFASFPEGSWEACGSLPPSSDPGLSAPPTPAPILRADLAGILGVSGVLLFGCVYLLHLLRRHKHRPAPRLQPSRTSPQAPRARAWAPSQASQAALHVPYATINTSCRPATLDTAHPHGGPSWWASLPTHAAHRPQGPAAWASTPIPARGSFVSVENGLYAQAGERPPHTGPGLTLFPDPRGPRAMEGPLGVR

Target: T1, human CD112R (N81D)
Experiment: Biacore SPR

Row | Kd [nM] | Binder
1 | 0.126 | B1
2 | 0.25 | B2
3 | 0.0594 | B3
4 | 0.0506 | B4

What follows are binders tested against cynomolgus TIGIT (assay: Biacore SPR).
cynomolgus TIGIT, sequence (chain, as listed by the source): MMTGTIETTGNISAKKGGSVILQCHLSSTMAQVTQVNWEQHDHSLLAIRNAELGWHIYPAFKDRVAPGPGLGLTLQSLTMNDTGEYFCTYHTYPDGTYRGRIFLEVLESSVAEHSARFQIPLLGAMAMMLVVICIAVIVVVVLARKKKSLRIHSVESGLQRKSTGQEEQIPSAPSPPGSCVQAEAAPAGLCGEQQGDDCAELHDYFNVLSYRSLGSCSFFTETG

Row | Kd [nM] | Binder
5 | 9.39 | B5
6 | 34.7 | B6
7 | 13 | B7
8 | 25 | B8

Target: T2, human TIGIT
Experiment: Biacore SPR

Row | Kd [nM] | Binder
9 | 0.283 | B5
10 | 0.0523 | B6
11 | 0.0519 | B7
12 | 0.228 | B8

These binders were tested against 31B3.001 (assay: Biacore SPR).

Row | Kd [nM] | Binder
13 | 2.29 | B9

— US20220017616A1 (published 2022)
